Data as given in paper doi:10.1101/2024.08.28.609967 (bioRxiv, 2024).

B5: GFP-FIP200 C-terminal region (CTR) (residues 1429–1591) (domain or fragment, UniProt Q8TDY2-2 1429-1591, looked up)
chain: ADEGRVDSAMETSMMSVQENIHMLSEEKQRIMLLERTLQLKEEENKRLNQRLMSQSMSSVSSRHSEKIAIRDFQVGDLVLIILDERHDNYVLFTVSPTLYFLHSESLPALDLKPASGASRRPWVLGKVMEKEYCQAKKAQNRFKVPLGTKFYRVKAVSWNKKV
notes: FIP200 (RB1CC1), C-terminal region with the Claw domain and a portion of the coiled-coil, residues 1429-1591; also called GFP-tagged FIP200-CTR; GFP-FIP200(CTR); source: E. coli Rosetta pLysS, purified (His-Trap, TEV cleavage, SEC); not shown: His6, N-terminal, cleaved; GFP, N-terminal, kept

How the values were obtained:
Details in all cases: both partners purified
[1] = molecular target: T1, mCherry-WIPI3 (UniProt Q5MNZ6 1-344); assay: microscopy-based bead assay; GFP-trap agarose beads coated with GFP-tagged bait (ULK1 complex, ATG13/101, FIP200, ULK1 K46I, ATG13 IDR and its fragments or variants; 5 uM), mCherry-tagged WIPI proteins as prey; 25 mM Tris-HCl pH 7.4, 150 mM NaCl, 1 mM DTT; confocal imaging
T1 construct: also called mCherry-tagged WIPI3; source: E. coli Rosetta pLysS, purified (His-Trap, SEC); not shown: mCherry, N-terminal, kept
T1 sequence (Q5MNZ6 whole entry, the tested form may be a part): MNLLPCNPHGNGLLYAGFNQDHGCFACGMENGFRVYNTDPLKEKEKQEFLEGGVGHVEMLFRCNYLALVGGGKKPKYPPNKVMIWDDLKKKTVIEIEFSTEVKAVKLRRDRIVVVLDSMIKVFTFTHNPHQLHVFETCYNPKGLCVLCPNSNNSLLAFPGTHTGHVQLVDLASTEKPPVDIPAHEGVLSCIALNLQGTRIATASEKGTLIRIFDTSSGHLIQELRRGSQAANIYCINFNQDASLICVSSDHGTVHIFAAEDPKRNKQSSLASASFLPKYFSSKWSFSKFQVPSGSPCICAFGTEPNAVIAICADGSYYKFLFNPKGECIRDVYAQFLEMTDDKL

[2] = molecular target: B5; assay: microscopy-based bead assay; as a2 (GFP-FIP200 CTR prey) with kinases TBK1, MBP-ULK1, CK2 or Src (Y530F) and 10 mM MgCl2, 100 uM ATP
[3] = molecular target: T2, GST-TEX264 (28–313aa) (human, UniProt Q9Y6I9 28-313); assay: microscopy-based bead assay; glutathione beads coated with GST-tagged cargo receptors (5 uM), GFP-FIP200 CTR (1429-1591) as prey, 30 min; 25 mM Tris-HCl pH 7.4, 150 mM NaCl, 1 mM DTT; confocal imaging
T2 construct: TEX264, cytosol-exposed domain, residues 28-313, synthetic gene; also called GST-tagged TEX264; source: E. coli Rosetta pLysS, purified (glutathione beads, SEC); not shown: GST, N-terminal, kept
T2 sequence (looked up): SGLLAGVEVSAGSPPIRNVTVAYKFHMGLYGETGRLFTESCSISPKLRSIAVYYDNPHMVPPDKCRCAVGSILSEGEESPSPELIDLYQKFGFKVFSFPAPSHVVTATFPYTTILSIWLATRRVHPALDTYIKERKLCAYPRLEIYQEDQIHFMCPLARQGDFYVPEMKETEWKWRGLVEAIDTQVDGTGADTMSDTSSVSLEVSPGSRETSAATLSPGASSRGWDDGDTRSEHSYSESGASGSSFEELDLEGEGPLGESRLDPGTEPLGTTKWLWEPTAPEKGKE

[4] = molecular target: T3, CCPG1-GST (1–212aa) (human, UniProt Q9ULG6 1-212); assay: as above
T3 construct: CCPG1, cytosol-exposed domain, residues 1-212, synthetic gene; also called GST-tagged CCPG1; source: E. coli Rosetta pLysS, purified (glutathione beads, SEC); not shown: GST, C-terminal, kept
T3 sequence (looked up): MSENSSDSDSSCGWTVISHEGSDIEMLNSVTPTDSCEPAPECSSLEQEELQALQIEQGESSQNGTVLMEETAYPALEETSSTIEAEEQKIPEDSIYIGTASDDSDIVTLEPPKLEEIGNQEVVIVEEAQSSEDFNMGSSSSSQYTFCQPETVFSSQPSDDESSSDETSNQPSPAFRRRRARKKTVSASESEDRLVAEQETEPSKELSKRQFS

[5] = molecular target: T4, BCL2L13(1–465aa)-GST (human, UniProt Q9BXK5 1-465); assay: as above
T4 construct: BCL2L13, cytosol-exposed domain, residues 1-465; also called BCL2L13-GST; source: E. coli Rosetta pLysS, purified (glutathione beads, SEC); not shown: GST, C-terminal, kept
T4 sequence (Q9BXK5 1-465): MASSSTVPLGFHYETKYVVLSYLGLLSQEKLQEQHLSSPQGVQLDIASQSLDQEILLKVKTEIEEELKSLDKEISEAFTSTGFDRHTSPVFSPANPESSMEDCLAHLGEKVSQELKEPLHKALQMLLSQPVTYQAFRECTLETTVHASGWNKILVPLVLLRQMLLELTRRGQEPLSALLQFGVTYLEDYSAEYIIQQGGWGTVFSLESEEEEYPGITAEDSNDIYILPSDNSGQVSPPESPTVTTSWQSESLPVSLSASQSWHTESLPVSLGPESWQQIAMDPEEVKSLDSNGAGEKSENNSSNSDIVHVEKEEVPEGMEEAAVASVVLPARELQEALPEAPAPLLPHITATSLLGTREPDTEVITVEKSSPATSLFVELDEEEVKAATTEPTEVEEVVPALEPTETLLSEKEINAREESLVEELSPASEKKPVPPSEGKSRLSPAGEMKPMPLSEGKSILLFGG

[6] = molecular target: T5, FKBP8-GST (1–391aa) (human, UniProt Q14318 1-391); assay: as above
T5 construct: FKBP8, cytosol-exposed domain, residues 1-391, synthetic gene; also called GST-tagged FKBP8; source: E. coli Rosetta pLysS, purified (glutathione beads, SEC); not shown: GST, C-terminal, kept
T5 sequence (Q14318 1-391): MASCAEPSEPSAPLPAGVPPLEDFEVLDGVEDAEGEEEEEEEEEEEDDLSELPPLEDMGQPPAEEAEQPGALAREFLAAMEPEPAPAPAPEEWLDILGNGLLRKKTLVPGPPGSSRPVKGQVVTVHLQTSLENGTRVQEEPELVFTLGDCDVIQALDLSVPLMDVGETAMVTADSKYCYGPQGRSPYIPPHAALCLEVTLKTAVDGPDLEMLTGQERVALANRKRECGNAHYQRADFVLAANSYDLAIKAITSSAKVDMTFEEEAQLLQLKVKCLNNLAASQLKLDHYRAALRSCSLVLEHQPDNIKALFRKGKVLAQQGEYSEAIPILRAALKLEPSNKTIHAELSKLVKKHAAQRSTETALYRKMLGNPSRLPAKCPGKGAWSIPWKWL

[7] = molecular target: T6, GST-FAM134C (250–466aa) (human, UniProt Q86VR2 250-466); assay: as above
T6 construct: FAM134C, cytosol-exposed domain, residues 250-466, synthetic gene; also called GST-tagged FAM134C; source: E. coli Rosetta pLysS, purified (glutathione beads, SEC); not shown: GST, N-terminal, kept
T6 sequence (Q86VR2 250-466): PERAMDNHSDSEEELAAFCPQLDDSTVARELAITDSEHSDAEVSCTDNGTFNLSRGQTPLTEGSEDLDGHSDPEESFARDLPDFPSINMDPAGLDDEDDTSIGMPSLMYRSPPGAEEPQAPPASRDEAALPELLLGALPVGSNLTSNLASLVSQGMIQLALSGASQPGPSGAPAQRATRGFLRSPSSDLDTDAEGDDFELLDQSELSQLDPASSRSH

[8] = molecular target: T7, GST-WIPI3 (UniProt Q5MNZ6 1-344); assay: microscopy-based bead assay; glutathione beads coated with GST-tagged WIPI2d or WIPI3 (5 uM), mCherry-tagged ATG13 constructs as prey; 25 mM Tris-HCl pH 7.4, 150 mM NaCl, 1 mM DTT; confocal imaging
T7 construct: WIPI3 (WDR45B); Addgene numbers are tied to WIPI1/2/3/4 by their order in the list; also called GST-tagged WIPI3; GST-TEV-WIPI3; source: FreeStyle HEK293F cells, transfected, purified (glutathione beads, SEC); not shown: GST, N-terminal, kept
T7 sequence (Q5MNZ6 whole entry): as the sequence (Q5MNZ6 whole entry, the tested form may be a part) above

B1: GFP-tagged ATG13 IDR (Δ191–205aa) (domain or fragment, UniProt O75143 205-517, looked up)
chain: PPIMGIIIDHFVDRPYPSSSPMHPCNYRTAGEDTGVIYPSVEDSQEVCTTSFSTSPPSQLSSSRLSYQPAALGVGSADLAYPVVFAAGLNATHPHQLMVPGKEGGVPLAPNQPVHGTQADQERLATCTPSDRTHCAATPSSSEDTETVSNSSEGRASPHDVLETIFVRKVGAFVNKPINQVTLTSLDIPFAMFAPKNLELEDTDPMVNPPDSPETESPLQGSLHSDGSSGGSSGNTHDDFVMIDFKPAFSKDDILPMDLGTFYREFQNPPQLSSLSIDIGAQSMAEDLDSLPEKLAVHEKNVREFDAFVETLQ
notes: source: E. coli Rosetta pLysS, purified (glutathione beads, TEV cleavage, SEC); not shown: GST, N-terminal, cleaved; EGFP, N-terminal, kept
binding result [1]: binds

B2: FUNDC1(1–50aa)-GST (domain or fragment, human, UniProt Q8IVP5 1-50, looked up)
chain: MATRNPPPQDYESDDDSYEVLDLTEYARRHQWWNRVFGHSSGPMVEKYSV
notes: FUNDC1, cytosol-exposed domain, residues 1-50; also called FUNDC1-GST; source: E. coli Rosetta pLysS, purified (glutathione beads, SEC); not shown: GST, C-terminal, kept
binding result [2]: binds

B3: GFP-tagged ATG13 (206–230) (peptide, UniProt O75143 206-230, looked up)
chain: PIMGIIIDHFVDRPYPSSSPMHPCN
notes: ATG13 residues 206-230; also called ATG13 IDR fragment (206–230aa); source: E. coli Rosetta pLysS, purified (glutathione beads, TEV cleavage, SEC on S75); not shown: GST, N-terminal, cleaved; EGFP, N-terminal, kept
binding result [1]: binds

B4: GFP-tagged ATG13 (191–230aa) (peptide, UniProt O75143 191-230, looked up)
chain: INLAFMSTRQFERTPPIMGIIIDHFVDRPYPSSSPMHPCN
notes: source: E. coli Rosetta pLysS, purified (glutathione beads, TEV cleavage, SEC on S75); not shown: GST, N-terminal, cleaved; EGFP, N-terminal, kept
binding result [1]: binds

B5
binding result [3]: binds
binding result [4]: binds
binding result [5]: binds
binding result [6]: binds
binding result [7]: binds

B6: mCherry-tagged ATG13 IDR (191–517aa) (domain or fragment, UniProt O75143 191-517, looked up)
chain: INLAFMSTRQFERTPPIMGIIIDHFVDRPYPSSSPMHPCNYRTAGEDTGVIYPSVEDSQEVCTTSFSTSPPSQLSSSRLSYQPAALGVGSADLAYPVVFAAGLNATHPHQLMVPGKEGGVPLAPNQPVHGTQADQERLATCTPSDRTHCAATPSSSEDTETVSNSSEGRASPHDVLETIFVRKVGAFVNKPINQVTLTSLDIPFAMFAPKNLELEDTDPMVNPPDSPETESPLQGSLHSDGSSGGSSGNTHDDFVMIDFKPAFSKDDILPMDLGTFYREFQNPPQLSSLSIDIGAQSMAEDLDSLPEKLAVHEKNVREFDAFVETLQ
notes: also called mCh-IDR; source: E. coli Rosetta pLysS, purified (His-Trap, SEC); not shown: mCherry, N-terminal, kept
binding result [8]: binds

B7: GFP-tagged ATG13 IDR (191–517aa) (domain or fragment, UniProt O75143 191-517, looked up)
chain: INLAFMSTRQFERTPPIMGIIIDHFVDRPYPSSSPMHPCNYRTAGEDTGVIYPSVEDSQEVCTTSFSTSPPSQLSSSRLSYQPAALGVGSADLAYPVVFAAGLNATHPHQLMVPGKEGGVPLAPNQPVHGTQADQERLATCTPSDRTHCAATPSSSEDTETVSNSSEGRASPHDVLETIFVRKVGAFVNKPINQVTLTSLDIPFAMFAPKNLELEDTDPMVNPPDSPETESPLQGSLHSDGSSGGSSGNTHDDFVMIDFKPAFSKDDILPMDLGTFYREFQNPPQLSSLSIDIGAQSMAEDLDSLPEKLAVHEKNVREFDAFVETLQ
notes: Addgene numbers of the GFP-ATG13 constructs are tied to the ranges by their order in the list; also called ATG13 IDR wild-type (WT); source: E. coli Rosetta pLysS, purified (glutathione beads, TEV cleavage, SEC); not shown: GST, N-terminal, cleaved; EGFP, N-terminal, kept
binding result [1]: binds
